Test results taken from US20240317890A1 (INSTITUT CURIE, published 2024).

Target: T1, recombinant human Her2/ErbB2 Fc Tag (ACROBiosystems) (human, UniProt P04626 23-652)
T1 construct: Bought product; Captured on protein A biosensors; also called HER2-Fc; not shown: Fc tag of the bought product
Test: BLI (Octet-HTX), HER2-Fc captured on protein A biosensors, sdAb in solution, 37 C
From the text: Affinity measurements: Affinity measurements can be done by surface plasmon resonance (for example as detailed in Moutel, Sandrine et al. “NaLi-H1: A universal synthetic library of humanized nanobodies providing highly functional antibodies and intrabodies.” eLife vol. 5 e16228. 19 Jul. 2016, doi:10.7554/eLife.16228). More particularly, binding affinities of selected hs2dAb fused to a 10HIS tag measured by surface plasmon resonance single cycle kinetics method. Dissociation equilibrium constant KD corresponds to the ratio between off-rate and on-rate kinetic constant Koff/Kₒₙ. […] Affinity measurements were also performed on an Octet-HTX (Sartorius) by bio-Layer Interferometry (BLI) which is an optical technique for measuring macromolecular interactions by analyzing interference patterns of white light reflected from the surface of a biosensor tip. BLI experiments were used to determine the kinetics and affinity of molecular interactions. Biosensors with proteinA were used to capture recombinant human Her2/ErbB2 Fc Tag (ACROBiosystems), the sensors were then dipped in wells containing purified sdAb to measure kinetics at 37° C.
Affinity measurement were also performed using BLI as above detailed.

Row | Binder | Kd | koff | kon
1 | anti-HER2 humanized synthetic single domain antibody sdAb no 1 (VHH, Purified sdAb in BLI; also called sdAb 1; hsdAb1) VHH: EVQLQASGGGFVQPGGSLRLSCAASGATSNISNMGWFRQAPGKEREFVSAISRAESRPLYYADSVKGRFTISRDNSKNTVYLQMNSLRAEDTATYYCAYMPLVRHKAYWGQGTQVTVSS | 4.6 nM | 0.004 s⁻¹ | 880000 M⁻¹ s⁻¹
2 | anti-HER2 humanized synthetic single domain antibody sdAb no 5 (VHH, Purified sdAb in BLI; also called sdAb 5; hsdAb 5) VHH: EVQLQASGGGFVQPGGSLRLSCAASGYTFSEETMGWFRQAPGKEREFVSAISWNHTFFEYYADSVKGRFTISRDNSKNTVYLQMNSLRAEDTATYYCAVTPLPPNKAYWGQGTQVTVSS | 33.3 nM | 0.0015 s⁻¹ | 44000 M⁻¹ s⁻¹
3 | anti-HER2 humanized synthetic single domain antibody sdAb no 2 (VHH, Purified sdAb in BLI; also called sdAb 2; hsdAb 2) VHH: EVQLQASGGGFVQPGGSLRLSCAASGDSYNESSMGWFRQAPGKEREFVSAISARGNHPLYYADSVKGRFTISRDNSKNTVYLQMNSLRAEDTATYYCASMPMPKWKKYWGQGTQVTVSS | 4.1 nM | 0.0049 s⁻¹ | 1.2e+06 M⁻¹ s⁻¹
4 | anti-HER2 humanized synthetic single domain antibody sdAb no 6 (VHH, Purified sdAb in BLI; Any tag is not described for this assay; also called sdAb 6) VHH: EVQLQASGGGFVQPGGSLRLSCAASGRGYTGTTMGWFRQAPGKEREFVSAISWTSNQTSYYADSVKGRFTISRDNSKNTVYLQMNSLRAEDTATYYCAMMPLPRWKGYWGQGTQVTVSS | 8.4 nM | 0.0066 s⁻¹ | 780000 M⁻¹ s⁻¹
5 | anti-HER2 humanized synthetic single domain antibody sdAb no 4 (VHH, Purified sdAb in BLI; Any tag is not described for this assay; also called sdAb 4) VHH: EVQLQASGGGFVQPGGSLRLSCAASGYTSRESGMGWFRQAPGKEREFVSAISRDQDGISYYADSVKGRFTISRDNSKNTVYLQMNSLRAEDTATYYCAMIPLTRNAKYWGQGTQVTVSS | 5.2 nM | 0.0076 s⁻¹ | 1.47e+06 M⁻¹ s⁻¹
